Assay results: article PMC9441717 (The Journal of Cell Biology, 2022)

Columns and labels:
Experiment in all cases: pull-down
[1] = molecular target: T1, His-tagged STX7 (1-236) (human, UniProt O15400 1-236)
T1 sequence: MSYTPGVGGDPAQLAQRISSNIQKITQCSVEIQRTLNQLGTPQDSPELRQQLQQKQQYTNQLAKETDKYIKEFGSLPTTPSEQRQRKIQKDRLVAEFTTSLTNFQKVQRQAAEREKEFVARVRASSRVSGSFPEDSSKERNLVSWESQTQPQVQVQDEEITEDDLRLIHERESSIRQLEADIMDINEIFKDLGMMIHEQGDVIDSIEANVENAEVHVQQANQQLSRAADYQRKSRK

[2] = molecular target: T2, His-tagged STX8 (1-210) (human, UniProt Q9UNK0 1-210)
T2 sequence: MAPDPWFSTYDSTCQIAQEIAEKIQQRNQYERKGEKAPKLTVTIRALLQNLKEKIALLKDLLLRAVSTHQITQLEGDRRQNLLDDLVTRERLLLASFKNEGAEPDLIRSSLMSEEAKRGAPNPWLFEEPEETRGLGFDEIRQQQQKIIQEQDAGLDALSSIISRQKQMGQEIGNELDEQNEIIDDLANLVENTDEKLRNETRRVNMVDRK

[3] = molecular target: T3, His-tagged VTI1B (1-204) (human, UniProt Q9UEU0 1-204)
T3 sequence: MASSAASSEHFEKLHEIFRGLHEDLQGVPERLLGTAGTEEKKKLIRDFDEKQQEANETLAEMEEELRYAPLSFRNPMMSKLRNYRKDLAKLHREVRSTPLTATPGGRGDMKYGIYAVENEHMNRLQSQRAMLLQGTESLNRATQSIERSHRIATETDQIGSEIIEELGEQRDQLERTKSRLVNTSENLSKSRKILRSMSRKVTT

binding result [1]: binds
binding result [2]: binds
binding result [3]: binds
B1: GST-tagged VAMP4 (1-115) (domain or fragment)
chain: MPPKFKRHLNDDDVTGSVKSERRNLLEDDSDEEEDFFLRGPSGPRFGPRNDKIKHVQNQVDEVIDVMQENITKVIERGERLDELQDKSESLSDNATAFSNRSKQLRRQMWWRGCK
